According to paper PMC2838725 (Biochemistry, 2010):
No end group written: not given here.

T1: C-terminal domain of Stt3p (residues 466-718), N-terminal His6-tagged (Saccharomyces cerevisiae, UniProt P39007 466-718)
T1 sequence (looked up): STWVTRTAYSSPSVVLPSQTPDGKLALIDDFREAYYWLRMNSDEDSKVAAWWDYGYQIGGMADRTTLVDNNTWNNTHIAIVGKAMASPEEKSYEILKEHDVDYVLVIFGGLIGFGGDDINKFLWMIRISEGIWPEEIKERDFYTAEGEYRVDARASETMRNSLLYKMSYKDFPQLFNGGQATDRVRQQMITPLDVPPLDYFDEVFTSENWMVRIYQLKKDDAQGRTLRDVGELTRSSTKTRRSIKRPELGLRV


How the values were obtained:
[1] = molecular target: C-terminal domain of Stt3p (residues 466-718), N-terminal His6-tagged (Saccharomyces cerevisiae) (UniProt P39007); assay: NMR titration
[2] = molecular target: T1, C-terminal domain of Stt3p (residues …); assay: saturation transfer difference

| Kd [1] [mM] | binding result [2] | Molecule |
| --- | --- | --- |
| 9.97 |  | substrate peptide Asn-Asp-Thr-NH2 |
|  | binds | YNSTSC-NH2 [six-residue acceptor substrate peptide Tyr-Asn-Ser-Thr-Ser-Cys-Am] |
